From US20240116985A1, “STAPLED PEPTIDES AND METHODS THEREOF” (priority 2020, published 2024)
Starred links: 1 amine or outer side, 2 acyl side, 3 side chain; linkers in the order of their positions; H or OH if unused. Positions of bridges follow the written chain, without caps; N, C: chain ends. Non-standard residues stand in square brackets, D forms with d. Primed or numbered codes have the meaning given here. *: point of attachment. PyrS2″ = (S)-3-amino-1-((pent-4-en-1-yloxy)carbonyl)pyrrolidine-3-carboxylic acid (stapling residue), C=CCCCOC(=O)N1CC[C@@](N[*:1])(C(=O)[*:2])C1; Tf = trifluoromethylsulfonyl on Dap side-chain N ([Tf]Dap = (S)-2-amino-3-((trifluoromethyl)sulfonamido)propanoic acid), O=S(=O)(C(F)(F)F)*; B5(16) = 2-amino-2-(pent-4-en-1-yl)hept-6-enoic acid = 2,2-bis(4-pentenyl)glycine (stitching residue), C=CCCCC(CCCC=C)(N[*:1])C(=O)[*:2]; B5(4) = 2,2-bis(4-pentenyl)glycine = 2-amino-2-(pent-4-en-1-yl)hept-6-enoic acid (stitching residue), C=CCCCC(CCCC=C)(N[*:1])C(=O)[*:2]; B5(5) = 2,2-bis(4-pentenyl)glycine, 2-amino-2-(pent-4-en-1-yl)hept-6-enoic acid (stitching residue), C=CCCCC(CCCC=C)(N[*:1])C(=O)[*:2]; TfeGA = (S)-2-amino-3-((carboxymethyl)(2,2,2-trifluoroethyl)amino)propanoic acid, O=C([C@H](CN(CC(=O)[*:3])CC(F)(F)F)N[*:1])[*:2]; PyrS2 = (S)-3-amino-1-((pent-4-en-1-yloxy)carbonyl)pyrrolidine-3-carboxylic acid, C=CCCCOC(=O)N1CC[C@@](N[*:1])(C(=O)[*:2])C1; B5(12) = 2-amino-2-(pent-4-en-1-yl)hept-6-enoic acid (two olefin side chains), C=CCCCC(CCCC=C)(N[*:1])C(=O)[*:2]; B5(3) = 2,2-bis(4-pentenyl)glycine (stitching residue), C=CCCCC(CCCC=C)(N[*:1])C(=O)[*:2]; B5 = 2-amino-2-(pent-4-en-1-yl)hept-6-enoic acid, C=CCCCC(CCCC=C)(N[*:1])C(=O)[*:2]; Ala(1H-tetrazol-5-yl) = N[C@@H](Cc1nnn[nH]1)C(=O)O; Trp(6-Cl) = N[C@@H](Cc1c[nH]c2cc(Cl)ccc12)C(=O)O; Phe(2-Cl) = N[C@@H](Cc1ccccc1Cl)C(=O)O; Phe(3-F) = N[C@@H](Cc1cccc(F)c1)C(=O)O; 1Nal = N[C@@H](Cc1cccc2ccccc12)C(=O)O; 2Nal = N[C@@H](Cc1ccc2ccccc2c1)C(=O)O; Bta = N[C@@H](Cc1csc2ccccc12)C(=O)O; αAllylPro = C=CC[C@@]1(C(=O)O)CCCN1; tBuAla = CC(C)(C)C[C@H](N)C(=O)O; 2Thi = N[C@@H](Cc1cccs1)C(=O)O; 3Thi = N[C@@H](Cc1ccsc1)C(=O)O; Cha = N[C@@H](CC1CCCCC1)C(=O)O; Cit = NC(=O)NCCC[C@H](N)C(=O)O; S8 = C=CCCCCCC[C@](C)(N)C(=O)O; hSer = N[C@@H](CCO)C(=O)O; Dap = NC[C@H](N)C(=O)O

Columns and labels:
[1] = target: full-length beta-Catenin (Uniprot ID P35222) (Homo sapiens (Human)) (UniProt P35222); experiment: fluorescence polarization competition; 10 nM full-length beta-catenin with 10 nM 5FAM-TCF4(10-53) probe as competitor
Target sequence in this assay (P35222 2-781 limits assumed): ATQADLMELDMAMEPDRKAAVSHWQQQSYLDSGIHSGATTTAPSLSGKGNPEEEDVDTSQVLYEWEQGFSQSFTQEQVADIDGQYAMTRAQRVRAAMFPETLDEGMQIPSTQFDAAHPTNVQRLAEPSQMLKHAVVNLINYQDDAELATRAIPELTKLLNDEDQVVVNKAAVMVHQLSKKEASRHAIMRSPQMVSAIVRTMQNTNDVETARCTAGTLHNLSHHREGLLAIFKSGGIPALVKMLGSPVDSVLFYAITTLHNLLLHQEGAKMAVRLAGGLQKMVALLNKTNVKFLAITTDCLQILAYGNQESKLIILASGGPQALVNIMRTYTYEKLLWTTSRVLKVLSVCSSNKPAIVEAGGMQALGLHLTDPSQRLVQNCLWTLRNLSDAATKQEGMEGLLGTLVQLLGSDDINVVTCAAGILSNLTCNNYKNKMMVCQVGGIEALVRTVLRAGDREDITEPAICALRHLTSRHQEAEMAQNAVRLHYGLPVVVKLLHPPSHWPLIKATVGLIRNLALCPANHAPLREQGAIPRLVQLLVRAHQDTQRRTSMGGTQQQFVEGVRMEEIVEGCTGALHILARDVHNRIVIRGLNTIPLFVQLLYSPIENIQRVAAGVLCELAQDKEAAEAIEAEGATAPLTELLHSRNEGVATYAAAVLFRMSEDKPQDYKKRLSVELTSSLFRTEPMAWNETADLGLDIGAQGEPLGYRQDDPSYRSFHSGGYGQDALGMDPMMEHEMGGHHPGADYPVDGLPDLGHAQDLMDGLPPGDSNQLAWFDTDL

[2] = target: full-length beta-Catenin (Uniprot ID P35222) (Homo sapiens (Human)) (UniProt P35222); experiment: fluorescence polarization competition: peptide titrated against 10 nM full-length beta-catenin + 10 nM 5FAM-TCF4(10-53) probe
Target sequence in this assay (P35222 2-781 limits assumed): as above

[3] = target: full-length beta-Catenin (Uniprot ID P35222) (Homo sapiens (Human)) (UniProt P35222); experiment: fluorescence polarization competition; 10 nM full-length beta-catenin with 10 nM 5FAM-TCF4 (residues 10-53) probe as competitor
Target sequence in this assay (P35222 2-781 limits assumed): as above

[4] = target: full-length beta-Catenin (Uniprot ID P35222) (Homo sapiens (Human)) (UniProt P35222); experiment: fluorescence polarization competition; displacement of 5FAM-TCF4(10-53) from full-length beta-catenin
Target sequence in this assay (P35222 whole entry, the tested form may be a part): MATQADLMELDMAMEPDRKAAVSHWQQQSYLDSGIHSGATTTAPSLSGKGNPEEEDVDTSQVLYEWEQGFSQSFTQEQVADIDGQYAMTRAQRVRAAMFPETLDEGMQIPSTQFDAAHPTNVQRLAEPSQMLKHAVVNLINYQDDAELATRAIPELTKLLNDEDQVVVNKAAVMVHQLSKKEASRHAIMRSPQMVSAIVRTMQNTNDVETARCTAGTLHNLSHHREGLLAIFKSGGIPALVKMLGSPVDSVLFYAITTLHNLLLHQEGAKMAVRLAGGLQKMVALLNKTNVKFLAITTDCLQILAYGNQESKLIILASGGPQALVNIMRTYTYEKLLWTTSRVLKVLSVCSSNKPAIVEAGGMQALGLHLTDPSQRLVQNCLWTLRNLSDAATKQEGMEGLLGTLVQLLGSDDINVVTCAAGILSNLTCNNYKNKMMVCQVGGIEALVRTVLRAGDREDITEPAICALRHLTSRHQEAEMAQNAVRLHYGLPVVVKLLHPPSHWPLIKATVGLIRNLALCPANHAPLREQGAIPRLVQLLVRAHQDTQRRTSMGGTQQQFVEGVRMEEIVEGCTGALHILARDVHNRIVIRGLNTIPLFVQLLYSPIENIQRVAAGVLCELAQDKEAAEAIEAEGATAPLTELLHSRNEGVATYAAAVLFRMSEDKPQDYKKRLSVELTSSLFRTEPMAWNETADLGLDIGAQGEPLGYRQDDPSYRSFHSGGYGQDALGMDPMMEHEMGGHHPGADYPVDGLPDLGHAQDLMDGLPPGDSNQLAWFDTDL

[5] = target: full-length beta-Catenin (Uniprot ID P35222) (Homo sapiens (Human)) (UniProt P35222); experiment: fluorescence polarization competition; full-length beta-catenin, competitor 5FAM-TCF4 10-53
[6] = target: full-length beta-Catenin (Uniprot ID P35222) (Homo sapiens (Human)) (UniProt P35222); experiment: fluorescence polarization competition; peptide titrated against 10 nM full-length beta-catenin + 10 nM 5FAM-TCF4(10-53) probe
Target sequence in this assay (P35222 whole entry, the tested form may be a part): as above

[7] = target: full-length beta-Catenin (Uniprot ID P35222) (Homo sapiens (Human)) (UniProt P35222); experiment: fluorescence polarization competition; displaces 5FAM-TCF4(10-53) from full-length beta-catenin
Target sequence in this assay (P35222 2-781 limits assumed): as the sequence (P35222 2-781 limits assumed) above

[8] = target: full-length beta-Catenin (Uniprot ID P35222) (Homo sapiens (Human)) (UniProt P35222); experiment: fluorescence polarization competition; 10 nM full-length beta-catenin + 10 nM 5FAM-TCF4(10-53) probe, peptide titrated
Target sequence in this assay (P35222 2-781 limits assumed): as above

[9] = target: full-length beta-Catenin (Uniprot ID P35222) (Homo sapiens (Human)) (UniProt P35222); experiment: fluorescence polarization competition; full-length beta-catenin with 5FAM-labeled TCF4 (10-53) probe as competitor
Target sequence in this assay (P35222 whole entry, the tested form may be a part): as the sequence (P35222 whole entry, the tested form may be a part) above

[10] = target: full-length beta-Catenin (Uniprot ID P35222) (Homo sapiens (Human)) (UniProt P35222); experiment: fluorescence polarization competition; full-length beta-catenin, competitor probe 5FAM-TCF4(10-53)
Target sequence in this assay (P35222 2-781 limits assumed): as the sequence (P35222 2-781 limits assumed) above

Work on Ac-[αAllylPro]D[tBuAla][B5(4)]DDAAF[hSer][PyrS2″][3Thi][Bta]H-NH2 (staple 1-4, 4-11) [I-804] yielded an IC50 [1] of 5 nM and an EC50 [2] of 5 nM.

Ac-[αAllylPro]D[tBuAla][B5(4)]DYAAFN[PyrS2][3Thi][Bta]H-NH2 (staple 1-4, 4-11) [I-843] was tested, and the EC50 [3] was 154 nM and the IC50 [4] was 154 nM.

Ac-[αAllylPro]D[tBuAla][B5(4)]DDAAF[Cit][PyrS2″][3Thi][Bta]Q-NH2 (staple 1-4, 4-11) [I-805] was tested, and the IC50 [1] was 5 nM and the EC50 [2] was 5 nM.

Ac-[αAllylPro]D[Cha][B5(4)]DEAAFN[S8]F[Bta]-NH2 (staple 1-4, 4-11) [I-627] was tested, and the IC50 [5] was 338 nM and the EC50 [6] was 338 nM.

Ac-[αAllylPro]DI[B5(4)][Dap](Tf)EAAFQ[S8]F[Bta]Q-NH2 (staple 1-4, 4-11) [I-630] was tested, and the IC50 [5] was 5000 nM and the EC50 [6] was 5000 nM.

B1: I-629 (peptide)
peptide: Ac-[αAllylPro]DL[B5(16)]DEAAF[Cit][S8]F[Bta]-NH2
modifications: staple 1-4, 4-11; not fully specified; printed as Ac-PL3-Asp-Leu-B5-Asp-Glu-Ala-Ala-Phe-Cit-S8-Phe-BztA-NH2
Binder B1 has an IC50 [5] of 36 nM and an EC50 [6] of 685 nM.

Ac-[αAllylPro]D[tBuAla][B5(5)]DNAAFS[PyrS2″][Phe(2-Cl)][Bta]S-NH2 (staple 1-4, 4-11) [I-1020] gave an EC50 [7] of 52 nM and an IC50 [5] of 52 nM.

For Ac-[αAllylPro]DA[B5(4)]DEAAFN[S8]F[Bta]-NH2 (staple 1-4, 4-11) [I-432], the EC50 [8] was 145 nM and the IC50 [6] was 145 nM.

Ac-[αAllylPro]DI[B5(4)][Dap](Tf)EAAFQ[S8]F[Bta]Q-NH2 (staple 1-4, 4-11) [I-631] was tested, and the IC50 [5] was 5000 nM and the EC50 [6] was 5000 nM.

B2: I-1019: Ac-PL3-Asp-Npg-B5-Asp-Asp-Ala-Ala-Phe-Ser-PyrS2-2C1F-BztA-Ser-NH2 (peptide)
peptide: Ac-[αAllylPro]D[tBuAla][B5(16)]DDAAFS[PyrS2″][Phe(2-Cl)][Bta]S-NH2
modifications: staple 1-4, 4-11; not fully specified; printed as Ac-PL3-Asp-Npg-B5-Asp-Asp-Ala-Ala-Phe-Ser-PyrS2-2C1F-BztA-Ser-NH2
For B2, the IC50 [1] was 5 nM.

Ac-[αAllylPro]DA[B5(4)]DEAAFQ[S8][2Thi][Bta]Q-NH2 (staple 1-4, 4-11) [I-428] showed an EC50 [8] of 60 nM and an IC50 [6] of 60 nM.

In the case of Ac-[αAllylPro]DA[B5(4)]DEAAFQ[S8][3Thi][Bta]Q-NH2 (staple 1-4, 4-11; also: staple isomer composition, later-eluting HPLC peak) [I-427], the EC50 [8] is reported as 38.5 nM and the IC50 [6] is reported as 38.5 nM.

Work on Ac-[αAllylPro]D[tBuAla][B5(4)]DDAAF[Cit][PyrS2″][3Thi][Bta]H-NH2 (staple 1-4, 4-11) [I-806] yielded an IC50 [1] of 5 nM and an EC50 [2] of 5 nM.

With Ac-[αAllylPro]D[tBuAla][B5(12)]DNAAFF[PyrS2][3Thi][Bta]Q-NH2 (staple 1-4, 4-11) [I-855] the EC50 [3] was 22 nM and the IC50 [4] was 22 nM.

Ac-[αAllylPro]DA[B5(3)]D[Ala(1H-tetrazol-5-yl)]AAFQ[S8]F[Bta]Q-NH2 (staple 1-4, 4-11) [I-413] was tested, and the EC50 [8] was 90 nM and the IC50 [6] was 90 nM.

In the case of Ac-[αAllylPro]DA[B5(4)]DEAA[3Thi]Q[S8][Phe(3-F)][Bta]H-NH2 (staple 1-4, 4-11) [I-430], the EC50 [8] is reported as 154 nM and the IC50 [6] is reported as 154 nM.

Ac-[αAllylPro]D[Cha][B5(4)]DEAAFN[S8]F[Bta]-NH2 (staple 1-4, 4-11; also: earlier-eluting staple isomer) [I-626] gave an IC50 [5] of 5000 nM and an EC50 [6] of 5000 nM.

Work on Ac-[αAllylPro]D[tBuAla][B5(3)]D[TfeGA]AAFS[S8][Phe(2-Cl)][Bta]Q-NH2 (staple 1-4, 4-11) [I-995] yielded an EC50 [9] of 55 nM and an IC50 [10] of 55 nM.

Ac-[αAllylPro]D[tBuAla][B5]DDAAFN[PyrS2][1Nal][Bta]H-NH2 (staple 1-4, 4-11) [I-794] showed an IC50 [1] of 19 nM and an EC50 [2] of 19 nM.

Binder Ac-[αAllylPro]DL[B5(4)]DEAAF[Cit][S8]F[Bta]-NH2 (staple 1-4, 4-11) [I-628] has an IC50 [5] of 60 nM and an EC50 [6] of 713 nM.

In the case of Ac-[αAllylPro]D[tBuAla][B5(4)]DTAAFN[PyrS2][3Thi][Bta]H-NH2 (staple 1-4, 4-11) [I-845], the EC50 [3] is reported as 7 nM and the IC50 [4] is reported as 7 nM.

Ac-[αAllylPro]DA[B5(4)]DEAA[3Thi]Q[S8][Phe(3-F)][Bta]Q-NH2 (staple 1-4, 4-11) [I-429] was tested, and the EC50 [8] was 146 nM and the IC50 [6] was 146 nM.

Work on Ac-[αAllylPro]D[tBuAla][B5(12)]DNAAFL[PyrS2][3Thi][Bta]Q-NH2 (staple 1-4, 4-11) [I-856] yielded an EC50 [3] of 17 nM and an IC50 [4] of 17 nM.

For Ac-[αAllylPro]D[tBuAla][B5]DDAAFN[PyrS2][2Nal][Bta]H-NH2 (staple 1-4, 4-11) [I-795], the IC50 [1] was 176 nM and the EC50 [2] was 176 nM.

For Ac-[αAllylPro][Ala(1H-tetrazol-5-yl)]A[B5(3)]DEAAFQ[S8]F[Bta]Q-NH2 (staple 1-4, 4-11; also: staple isomer composition, earlier eluting HPLC peak) [I-416], the EC50 [8] was 5000 nM and the IC50 [6] was 5000 nM.

Ac-[αAllylPro]D[tBuAla][B5]DDAAFL[PyrS2][3Thi][Bta]H-NH2 (staple 1-4, 4-11) [I-802] gave an IC50 [1] of 6 nM and an EC50 [2] of 6 nM.

For Ac-[αAllylPro]DI[B5(3)]DEAA[2Thi]Q[S8][Phe(3-F)][Bta]Q-NH2 (staple 1-4, 4-11) [I-412], the EC50 [8] was 92 nM and the IC50 [6] was 92 nM.

Ac-[αAllylPro][Ala(1H-tetrazol-5-yl)]A[B5(3)]DEAAFQ[S8]F[Bta]Q-NH2 (staple 1-4, 4-11; also: staple isomer composition, later eluting HPLC peak) [I-417] showed an EC50 [8] of 5000 nM and an IC50 [6] of 5000 nM.

For Ac-[αAllylPro]DA[B5(3)]DEAAFQ[S8][3Thi][Bta]Q-NH2 (staple 1-4, 4-11; also: staple isomer composition, earlier eluting HPLC peak) [I-426], the EC50 [8] was 109 nM and the IC50 [6] was 109 nM.

With Ac-[αAllylPro]D[tBuAla][B5]DDAAFN[PyrS2][3Thi][Trp(6-Cl)]H-NH2 (staple 1-4, 4-11) [I-798] the IC50 [1] was 106 nM and the EC50 [2] was 106 nM.

Binder Ac-[αAllylPro][Dap](Tf)I[B5(4)]DEAAFQ[S8]F[Bta]Q-NH2 (staple 1-4, 4-11) [I-632] has an IC50 [5] of 5000 nM and an EC50 [6] of 5000 nM.

Ac-[αAllylPro]DA[B5(4)]DEAA[3Thi]Q[S8][Phe(3-F)][Bta]-NH2 (staple 1-4, 4-11) [I-431] showed an EC50 [8] of 1320 nM and an IC50 [6] of 1320 nM.
